Measurements as given in US20140128287.

Target: GEV (Gal4 DBD - estrogen receptor - VP16) (synthetic construct) (UniProt P04386)
Assay: cell_activity
Conditions: yeast reporter with three pairs of GEV sites, 15 min after beta-estradiol

GEV (Gal4 DBD - estrogen receptor - VP16) (synthetic construct), sequence (P04386 1-93): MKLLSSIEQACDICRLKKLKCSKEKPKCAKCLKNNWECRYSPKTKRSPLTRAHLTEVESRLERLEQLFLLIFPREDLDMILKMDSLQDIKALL

## CGGNNNNNNNNNNNCCG (double strand) [GAL1 promoter UASgal (Gal4 consensus site)]
  activity (fold induction of GFP transcripts): > 50
